The text below walks through data of patent US20220033520A1.

Experiment [1] concerns the target human FcRn complex (FCGRT and beta-2 microglobulin), recombinant, purified (human) (UniProt P55899). The experiment is described as follows: SPR, anti-human Fab capture, pH 7.4, steady state. For orientation: Surface plasmon resonance follows binding to a sensor surface in real time, without labels.
The target in experiment [2] is human FcRn (FCGRT and beta-2 microglobulin) expressed on MDCK II cells (human) (UniProt P55899). The experiment is described as follows: cell-based or functional assay.
Experiment [3] has as its target human FcRn complex (FCGRT and beta-2 microglobulin), recombinant, purified (human) (UniProt P55899). The experiment in a line: SPR, protein L capture, pH 6, kinetic.
For experiment [4] the target is unchanged. The experiment in a line: SPR, protein L capture, pH 7.4, steady state.

Chain of human FcRn (FCGRT and beta-2 microglobulin) expressed on MDCK II cells (human) (P55899 24-365, chain 1 of 2): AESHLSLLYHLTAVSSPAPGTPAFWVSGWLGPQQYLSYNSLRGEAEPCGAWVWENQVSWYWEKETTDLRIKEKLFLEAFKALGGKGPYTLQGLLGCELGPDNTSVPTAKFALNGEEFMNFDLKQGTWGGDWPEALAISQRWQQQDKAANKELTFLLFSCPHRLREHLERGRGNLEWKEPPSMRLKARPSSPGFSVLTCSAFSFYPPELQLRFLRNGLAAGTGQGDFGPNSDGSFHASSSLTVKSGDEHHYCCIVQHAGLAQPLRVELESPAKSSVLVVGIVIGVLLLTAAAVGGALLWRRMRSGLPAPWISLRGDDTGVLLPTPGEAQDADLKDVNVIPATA
Chain of human FcRn (FCGRT and beta-2 microglobulin) expressed on MDCK II cells (human) (P61769 21-119, chain 2 of 2, further chain): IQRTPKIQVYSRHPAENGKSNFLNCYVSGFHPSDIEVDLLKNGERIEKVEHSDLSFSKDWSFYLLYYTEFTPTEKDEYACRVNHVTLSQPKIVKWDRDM
Chain of antibody comprising wild-type hIgG4 (Table 2) (Fc): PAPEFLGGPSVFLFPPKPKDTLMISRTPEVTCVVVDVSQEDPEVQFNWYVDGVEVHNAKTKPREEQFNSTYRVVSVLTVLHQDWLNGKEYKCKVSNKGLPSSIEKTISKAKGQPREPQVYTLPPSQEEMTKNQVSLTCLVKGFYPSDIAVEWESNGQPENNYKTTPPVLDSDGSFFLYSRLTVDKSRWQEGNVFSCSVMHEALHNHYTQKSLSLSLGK
Chain of human FcRn complex (FCGRT and beta-2 microglobulin), recombinant, purified (human) (P55899 24-297 limits assumed, chain 1 of 2): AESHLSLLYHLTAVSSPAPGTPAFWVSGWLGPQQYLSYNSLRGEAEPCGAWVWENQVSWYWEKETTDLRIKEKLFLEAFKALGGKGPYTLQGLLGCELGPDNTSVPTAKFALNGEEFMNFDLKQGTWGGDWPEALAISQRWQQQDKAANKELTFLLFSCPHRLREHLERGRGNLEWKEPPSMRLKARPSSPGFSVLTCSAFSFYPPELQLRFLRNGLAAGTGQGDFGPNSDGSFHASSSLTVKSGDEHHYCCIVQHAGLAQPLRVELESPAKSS
Chain of human FcRn complex (FCGRT and beta-2 microglobulin), recombinant, purified (human) (P61769 21-119 limits assumed, chain 2 of 2, further chain): as the sequence (P61769 21-119, chain 2 of 2, further chain) above

Turning to “anti-Abeta hIgG1 antibody, Fc modification Q3 (M252Y/T307Q/N434Y/Y436I)”, the Kd in experiment [1] was 206 nM.

Take “anti-Abeta hIgG4 antibody, Fc modification Q2 (M252Y/T307Q/M428L/N434Y)”: the Kd in experiment [1] turned out to be 339 nM.

In the case of “anti-Abeta hIgG4 antibody, Fc modification Q5 (M252Y/Q311I/N434Y/Y436I)”, the Kd in experiment [1] was 151 nM.

Consider “anti-BACE1 hIgG1 antibody, Fc modification D7 (H433K/N434Y)”, for which, in experiment [2], the Transcytosis Normalized to WT (normalized to WT) worked out at 9.4. Besides, in experiment [3], the Kd worked out at 92.2 nM, the koff is 0.00192 s⁻¹ and the kon stood at 20800 M⁻¹ s⁻¹.

As to “anti-BACE1 hIgG1 antibody, Fc modification D92 (M252W/N434W)”, the Transcytosis Normalized to WT (normalized to WT) in experiment [2] amounted to 92. Besides, in experiment [3], the Kd came to 12.4 nM, the koff worked out at 0.0074 s⁻¹ and the kon is 595000 M⁻¹ s⁻¹. For the same substance, the Kd in experiment [4] is 760 nM.

The substance “anti-BACE1 hIgG1 antibody, Fc modification Q4 (M252Y/Q311I/M428L/N434Y)” had a Transcytosis Normalized to WT (normalized to WT) in experiment [2] of 159. Further, in experiment [3], the Kd was 57.3 nM, the koff was 0.0107 s⁻¹ and the kon was 186000 M⁻¹ s⁻¹. Further, the Kd in experiment [4] turned out to be 1270 nM.

Substance “anti-BACE1 hIgG1 antibody, Fc modification S1 (M252Y)” returned a Transcytosis Normalized to WT (normalized to WT) in experiment [2] of 1.7. Moreover, in experiment [3], the Kd was 117 nM, the koff came to 0.00172 s⁻¹ and the kon was found to be 14700 M⁻¹ s⁻¹.

With “anti-BACE1 hIgG1 antibody, Fc modification S2 (N286E)”, in experiment [2], the Transcytosis Normalized to WT (normalized to WT) stood at 1.7. In addition, in experiment [3], the Kd worked out at 303 nM, the koff was 0.00316 s⁻¹ and the kon was 10400 M⁻¹ s⁻¹.

Substance “anti-BACE1 hIgG1 antibody, Fc modification S4 (H310A)” had a Transcytosis Normalized to WT (normalized to WT) in experiment [2] of 1.1.

“anti-BACE1 hIgG1 antibody, Fc modification S6 (Q311I)”: in experiment [2], the Transcytosis Normalized to WT (normalized to WT) is 1.7. In experiment [3], the Kd was found to be 171 nM, the off-rate constant (koff) was 0.00157 s⁻¹ and the association rate constant (kon) was determined as 9190 M⁻¹ s⁻¹.

“anti-BACE1 hIgG1 antibody, Fc modification S7 (M428L)” came in with a Transcytosis Normalized to WT (normalized to WT) in experiment [2] of 2. Moreover, in experiment [3], the Kd was 178 nM, the koff was found to be 0.00202 s⁻¹ and the kon amounted to 11300 M⁻¹ s⁻¹.

On to “anti-BACE1 hIgG1 antibody, Fc modification S8 (H433K)”, for which the Transcytosis Normalized to WT (normalized to WT) in experiment [2] worked out at 2.9. Further, in experiment [3], the Kd was found to be 363 nM, the koff stood at 0.0048 s⁻¹ and the kon came out at 13200 M⁻¹ s⁻¹.

In experiment [2], “anti-BACE1 hIgG1 antibody, Fc modification S9 (N434F)” yielded a Transcytosis Normalized to WT (normalized to WT) of 6.3. Further, in experiment [3], the Kd came to 100 nM, the koff was found to be 0.0419 s⁻¹ and the kon came to 418000 M⁻¹ s⁻¹.

With “anti-BACE1 hIgG1 antibody, Fc modification S10 (N434W)”, the Transcytosis Normalized to WT (normalized to WT) in experiment [2] worked out at 26. Moreover, in experiment [3], the Kd worked out at 54.9 nM, the koff stood at 0.051 s⁻¹ and the kon came out at 929000 M⁻¹ s⁻¹. In experiment [4], the Kd was determined as 5530 nM.

Turning to “anti-BACE1 hIgG1 antibody, Fc modification S11 (N434Y)”, in experiment [2], the Transcytosis Normalized to WT (normalized to WT) was 7.8. Besides, in experiment [3], the Kd stood at 73.6 nM, the koff was 0.0141 s⁻¹ and the kon came to 191000 M⁻¹ s⁻¹.

Consider “anti-BACE1 hIgG1 antibody, Fc modification S12 (Y436I)”, for which, in experiment [2], the Transcytosis Normalized to WT (normalized to WT) amounted to 1.8. In experiment [3], the equilibrium dissociation constant (Kd) is 201 nM, the koff amounted to 0.00193 s⁻¹ and the kon is 9590 M⁻¹ s⁻¹.

With “anti-BACE1 hIgG1 antibody, Fc modification T1 (M252Y/T307Q/N434Y)”, the Transcytosis Normalized to WT (normalized to WT) in experiment [2] is 125. For the same substance, in experiment [3], the Kd is 12 nM, the koff is 0.0101 s⁻¹ and the kon is 874000 M⁻¹ s⁻¹. In addition, the Kd in experiment [4] turned out to be 461 nM.

“anti-BACE1 hIgG1 antibody, Fc modification T2 (M252Y/Q311A/N434Y)”: the Transcytosis Normalized to WT (normalized to WT) in experiment [2] was 111. In experiment [3], the Kd worked out at 20 nM, the koff came to 0.0178 s⁻¹ and the kon is 908000 M⁻¹ s⁻¹. Also, the Kd in experiment [4] amounted to 614 nM.

In experiment [2], “anti-BACE1 hIgG1 antibody, Fc modification T4 (M252Y/M428L/N434Y)” yielded a Transcytosis Normalized to WT (normalized to WT) of 100. In addition, in experiment [3], the Kd was determined as 30 nM, the koff worked out at 0.0201 s⁻¹ and the kon was 660000 M⁻¹ s⁻¹. Besides, in experiment [4], the Kd was 2200 nM.

“anti-BACE1 hIgG1 antibody, Fc modification T5 (M252Y/H433K/N434Y)”: in experiment [2], the Transcytosis Normalized to WT (normalized to WT) stood at 112. Besides, in experiment [3], the Kd turned out to be 34 nM, the koff turned out to be 0.0357 s⁻¹ and the kon was determined as 1.05e+06 M⁻¹ s⁻¹. Also, the Kd in experiment [4] amounted to 730 nM.

Substance “anti-BACE1 hIgG1 antibody, Fc modification T6 (M252Y/N434Y/Y436I)” gave a Transcytosis Normalized to WT (normalized to WT) in experiment [2] of 133. Also, the Kd in experiment [4] was 459 nM.

Consider “anti-BACE1 hIgG1 antibody, Fc modification T7 (T307Q/N286E/N434Y)”, for which the Transcytosis Normalized to WT (normalized to WT) in experiment [2] was 91. In addition, in experiment [3], the equilibrium dissociation constant (Kd) turned out to be 19 nM, the koff was 0.0177 s⁻¹ and the kon amounted to 931000 M⁻¹ s⁻¹. The Kd in experiment [4] is 1120 nM.

In experiment [2], “anti-BACE1 hIgG1 antibody, Fc modification T8 (T307Q/Q311A/N434Y)” registered a Transcytosis Normalized to WT (normalized to WT) of 64. Besides, in experiment [3], the Kd came to 37 nM, the koff was determined as 0.0319 s⁻¹ and the kon was 854000 M⁻¹ s⁻¹. Also, the Kd in experiment [4] came out at 1680 nM.

Substance “anti-BACE1 hIgG1 antibody, Fc modification T9 (T307Q/Q311I/N434Y)” yielded a Transcytosis Normalized to WT (normalized to WT) in experiment [2] of 140. Moreover, in experiment [3], the Kd worked out at 520 nM, the koff came out at 0.00767 s⁻¹ and the kon was 14800 M⁻¹ s⁻¹. In addition, in experiment [4], the Kd was determined as 1930 nM.

With “anti-BACE1 hIgG1 antibody, Fc modification T11 (T307Q/H433K/N434Y)”, in experiment [2], the Transcytosis Normalized to WT (normalized to WT) stood at 65. In experiment [3], the Kd is 37 nM, the koff amounted to 0.0166 s⁻¹ and the kon turned out to be 445000 M⁻¹ s⁻¹. Also, the Kd in experiment [4] is 4800 nM.

In experiment [2], “anti-BACE1 hIgG1 antibody, Fc modification T12 (T307Q/N434Y/Y436I)” showed a Transcytosis Normalized to WT (normalized to WT) of 112.

“anti-BACE1 hIgG1 antibody, Fc modification T13 (N286E/Q311A/N434Y)” gave a Transcytosis Normalized to WT (normalized to WT) in experiment [2] of 108. Further, in experiment [3], the Kd was 38 nM, the koff came out at 0.0327 s⁻¹ and the kon was 852000 M⁻¹ s⁻¹. In experiment [4], the Kd was found to be 2450 nM.

In experiment [2], “anti-BACE1 hIgG1 antibody, Fc modification T14 (N286E/Q311I/N434Y)” yielded a Transcytosis Normalized to WT (normalized to WT) of 73. In experiment [3], the Kd was 36 nM, the koff turned out to be 0.0278 s⁻¹ and the kon turned out to be 772000 M⁻¹ s⁻¹. Moreover, the Kd in experiment [4] was 3110 nM.

The substance “anti-BACE1 hIgG1 antibody, Fc modification T16 (N286E/H433K/N434Y)” returned a Transcytosis Normalized to WT (normalized to WT) in experiment [2] of 55. Also, in experiment [3], the Kd is 66.7 nM, the koff amounted to 0.0271 s⁻¹ and the kon is 406000 M⁻¹ s⁻¹. Moreover, the Kd in experiment [4] amounted to 4980 nM.

For “anti-BACE1 hIgG1 antibody, Fc modification T17 (N286E/N434Y/Y436I)”, the Transcytosis Normalized to WT (normalized to WT) in experiment [2] was determined as 65. Moreover, in experiment [3], the Kd amounted to 53 nM, the koff stood at 0.0334 s⁻¹ and the kon is 631000 M⁻¹ s⁻¹. The Kd in experiment [4] was 6080 nM.

“anti-BACE1 hIgG1 antibody, Fc modification T18 (Q311A/M428L/N434Y)” showed a Transcytosis Normalized to WT (normalized to WT) in experiment [2] of 140.

In the case of “anti-BACE1 hIgG1 antibody, Fc modification T19 (Q311A/H433K/N434Y)”, the Transcytosis Normalized to WT (normalized to WT) in experiment [2] stood at 55. Besides, in experiment [3], the Kd amounted to 53.5 nM, the koff worked out at 0.0096 s⁻¹ and the kon was determined as 179000 M⁻¹ s⁻¹. In addition, the Kd in experiment [4] came out at 4480 nM.

Regarding “anti-BACE1 hIgG1 antibody, Fc modification T22 (Q311I/H433K/N434Y)”, the Transcytosis Normalized to WT (normalized to WT) in experiment [2] is 131. In addition, the Kd stood at 64 nM in experiment [3] and 9030 nM in experiment [4].

On to “anti-BACE1 hIgG1 antibody, Fc modification T26 (H433K/N434Y/Y436I)”, for which the Transcytosis Normalized to WT (normalized to WT) in experiment [2] was 71.

In experiment [2], “anti-BACE1 hIgG1 antibody, Fc modification T96 (M252Y/V308P/N434Y)” came in with a Transcytosis Normalized to WT (normalized to WT) of 94. In experiment [3], the Kd is 3.54 nM, the koff is 0.00314 s⁻¹ and the kon stood at 887000 M⁻¹ s⁻¹. In experiment [4], the Kd turned out to be 123 nM.

Regarding “anti-BACE1 hIgG4 antibody, Fc modification T6-IgG4 (M252Y/N434Y/Y436I)”, the Transcytosis Normalized to WT (normalized to WT) in experiment [2] amounted to 66. For the same substance, the Kd in experiment [4] is 412 nM.

With “antibody comprising modified Fc M428L/N434A (LA) (Table 2)”, the Transcytosis Normalized to WT (normalized to WT) in experiment [2] stood at 5.1. Moreover, in experiment [3], the Kd was 99.2 nM, the koff came out at 0.00371 s⁻¹ and the kon is 37400 M⁻¹ s⁻¹.

Turning to “antibody comprising wild-type hIgG1 (Table 2)”, the Transcytosis Normalized to WT (normalized to WT) in experiment [2] was found to be 1. For the same substance, in experiment [3], the Kd was determined as 732 nM, the koff amounted to 0.0164 s⁻¹ and the kon turned out to be 22300 M⁻¹ s⁻¹.

Turning to “antibody comprising wild-type hIgG4 (Table 2)”, the Transcytosis Normalized to WT (normalized to WT) in experiment [2] was 1. Also, in experiment [3], the Kd stood at 563 nM, the koff was 0.0119 s⁻¹ and the kon amounted to 21100 M⁻¹ s⁻¹.

In general, Kd refers to the concentration at which binding is half-saturated. In general, koff refers to the rate constant with which the complex falls apart. The term kon denotes the second-order rate constant of association.
